Results taken from patent US20190083600.

Test system: T1, RSV attachment (G) glycoprotein of RSV strain A2
T1 sequence: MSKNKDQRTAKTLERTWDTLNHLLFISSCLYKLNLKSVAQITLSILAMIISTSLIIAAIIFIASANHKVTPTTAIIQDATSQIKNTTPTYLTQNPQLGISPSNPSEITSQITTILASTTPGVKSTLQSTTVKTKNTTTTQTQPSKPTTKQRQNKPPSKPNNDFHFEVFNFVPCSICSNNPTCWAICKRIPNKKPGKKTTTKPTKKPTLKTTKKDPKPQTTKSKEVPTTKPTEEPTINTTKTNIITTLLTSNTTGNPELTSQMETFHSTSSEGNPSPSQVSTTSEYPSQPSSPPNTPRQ

Substance: cathepsin L
- G protein cleavage on virions treated in vitro with 50 ng/ul cathepsin L at pH 5.5 (immunoblot): When incubated with cathepsin L after growth, the virus that was grown in the presence of a cathepsin L inhibitor contained a cleaved G protein
